Results taken from EP4630447A2.

Key:
Test in all cases: sVNT, Table 2
[1] = target: SARS-CoV-2 spike trimer, BQ.1 (SARS-CoV-2)
[2] = target: SARS-CoV-2 spike trimer, BQ.1.1 (SARS-CoV-2)
[3] = target: SARS-CoV-2 spike trimer, XBB (SARS-CoV-2)
[4] = target: SARS-CoV-2 spike trimer, XBB.1 (SARS-CoV-2)
[5] = target: SARS-CoV-2 spike trimer, XBB.1.5 (SARS-CoV-2)

Measured: IC50

Bebtelovimab (antibody)
> 1 µg/mL: [1] | [2] | [3] | [4] | [5]
